Results taken from paper PMC8509050, “BZR1 Physically Interacts with SPL9 to Regulate the Vegetative Phase Change and Cell Elongation in Arabidopsis” (International Journal of Molecular Sciences, 2021).

Molecular target: T1, glutathione S transferase (GST)-SQUAMOSA PROMOTER BINDING PROTEIN-LIKE9 (SPL9) (Arabidopsis thaliana, UniProt Q700W2 1-375)
T1 construct: SPL9, Arabidopsis thaliana; full-length cDNA without stop codon recombined into pDEST15 (N-GST); also called GST-SPL9; source: Escherichia coli, purified; not shown: GST, N-terminal, kept
T1 sequence (looked up): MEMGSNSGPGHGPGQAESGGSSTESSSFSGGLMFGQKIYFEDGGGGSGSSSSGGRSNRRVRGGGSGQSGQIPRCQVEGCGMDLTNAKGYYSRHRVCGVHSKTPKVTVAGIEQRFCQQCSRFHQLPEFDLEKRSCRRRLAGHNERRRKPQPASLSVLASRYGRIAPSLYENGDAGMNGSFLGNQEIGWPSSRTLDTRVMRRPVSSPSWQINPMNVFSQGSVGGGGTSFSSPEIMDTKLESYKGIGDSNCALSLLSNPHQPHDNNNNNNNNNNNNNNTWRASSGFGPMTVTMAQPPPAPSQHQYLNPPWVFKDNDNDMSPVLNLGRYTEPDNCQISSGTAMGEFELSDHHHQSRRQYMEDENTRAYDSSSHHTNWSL
Assay: pull-down; glutathione beads with 1 µg GST-SPL9 incubated with 1 µg MBP or MBP-BZR1; 20 mM Tris-HCl pH 7.5, 100 mM NaCl, 1 mM EDTA, 4 °C, 1 h; washed 10 times with 300 mM NaCl, 0.5% TritonX-100; anti-MBP and anti-GST blots
Conditions: both partners purified

binding result: binds
B1: Maltose binding protein (MBP)-BRASSINAZOLE RESISTANT 1 (BZR1) (natural protein, Arabidopsis thaliana, UniProt Q8S307 1-336, looked up)
chain: MTSDGATSTSAAAAAAAAAAARRKPSWRERENNRRRERRRRAVAAKIYTGLRAQGDYNLPKHCDNNEVLKALCVEAGWVVEEDGTTYRKGCKPLPGEIAGTSSRVTPYSSQNQSPLSSAFQSPIPSYQVSPSSSSFPSPSRGEPNNNMSSTFFPFLRNGGIPSSLPSLRISNSCPVTPPVSSPTSKNPKPLPNWESIAKQSMAIAKQSMASFNYPFYAVSAPASPTHRHQFHTPATIPECDESDSSTVDSGHWISFQKFAQQQPFSASMVPTSPTFNLVKPAPQQMSPNTAAFQEIGQSSEFKFENSQVKPWEGERIHDVGMEDLELTLGNGKARG
notes: BZR1, Arabidopsis thaliana; also called MBP-BZR1; MBP-fused BZR1; source: Escherichia coli, purified
